Assay results from patent US20230192897A1 (NUMAB THERAPEUTICS, published 2023).

Key:
Fc tagged human PDL1 = molecular target: T1, Fc tagged human PDL1 (human, UniProt Q9NZQ7 19-239); assay: SPR
T1 construct: Bought (Sino Biological, cat. 10084-H02H); captured on the SPR chip; also called PDL1-Fc chimeric protein
Method: (§1) Affinity to PDL1 of the different species was determined by SPR measurements using a Biacore T200 device (GE Healthcare). An antibody specific for the Fc region of human IgGs was immobilized on a sensor chip (CM5 sensor chip, GE Healthcare) by amine-coupling. For all formats, with the exception of the Fc containing Morrison formats, PDL1-Fc chimeric protein from different species were captured by the immobilized antibody.
(§2) Three-fold serial dilutions of the molecules specific for PDL1 (0.12-90 nM) were injected into the flow cells for three minutes and dissociation was monitored for 10 minutes. After each injection cycle, surfaces were regenerated with one injection of a 3 M MgCl₂ solution. The apparent dissociation (kd) and association (kₐ) rate constants and the apparent dissociation equilibrium constant (KD) were calculated using one-to-one Langmuir binding model. Affinity to CD137 of the different species was determined using the identical setup as for PDL1 with the exception that CD137-Fc chimeric protein from different species were captured by the immobilized antibody.

Fc tagged human CD137 = molecular target: T2, Fc tagged human CD137 (human, UniProt Q07011 24-186); assay: SPR
T2 construct: also called CD137-Fc chimeric protein
Method: as §1, §2

human PDL1 on cells = human PDL1 on cells (human, UniProt Q9NZQ7 19-290); assay: cell-based or functional assay
[1] = molecular target: T3, CD137 on Jurkat NFkB reporter cells (human, UniProt Q07011 24-255); assay: cell-based or functional assay
[2] = molecular target: T3, CD137 on Jurkat NFkB reporter cells; assay: cell-based or functional assay; remark: listed apart in the source
biotinylated human PDL1 [3] = molecular target: T4, biotinylated human PDL1 (human, UniProt Q9NZQ7 19-238, limits assumed, biotinylated); assay: competition ELISA B7.1/PDL1
T4 construct: also called biotinylated PDL1
Method: Plates were blocked for 1 hour at room temperature by adding 300 μl of PBS with 1% BSA and 0.2% tween (dilution buffer) to each well. […] The mixtures were pre-incubated for 1 hour at room temperature under gentle agitation on a rotating mixer (21 rpm) and added to the microplates after 3 wash cycles with 450 μl wash buffer per well. Plates were incubated for 1.5 hours at room temperature under gentle agitation, then 10 ng/ml streptavidin-polyHRP40 was added to each microplate well after three washes with 450 μl of wash buffer per well. After 1 h incubation at RT, plates were washed three times with 450 μl wash buffer and TMB substrate solution was added. The enzymatic reaction was stopped after 6 minutes by addition of 1 M HCl and absorbance was measured at 450 nm using 690 nm as a reference wavelength. For calculation of IC₅₀ values, a four-parameter logistic (4PL) curve fit was performed in Graph Pad Prism using reference subtracted values.

biotinylated human PDL1 [4] = molecular target: T4, biotinylated human PDL1; assay: competition ELISA PD-1/PDL1
Method: Plates were blocked for 1 hour at room temperature by adding 300 μl of PBS with i%BSA and 0.2% tween (dilution buffer) to each well. Inhibitors were serially diluted in 3-fold steps to final concentrations ranging from 300 to 0.005 ng/ml in dilution buffer containing 1 ng/ml biotinylated human PDL1. The mixtures were pre-incubated for 1 hour at room temperature under gentle agitation on a rotating mixer (21 rpm) and added to the microplates after 3 wash cycles with 450 μl wash buffer per well. Plates were incubated for 1.5 hours at room temperature under gentle agitation, then 10 ng/ml streptavidin-polyHRP40 was added to each microplate well after three washes with 450 μl of wash buffer per well. After 1 h incubation at RT, plates were washed three times with 450 μl wash buffer and TMB substrate solution was added. The enzymatic reaction was stopped after 6 minutes by addition of 1 M HCl and absorbance was measured at 450 nm using 690 nm as a reference wavelength. For calculation of IC₅₀ values, a four-parameter logistic (4PL) curve fit was performed in Graph Pad Prism using reference subtracted values.

| Binder | koff (Fc tagged human PDL1) | Kd (Fc tagged human CD137) | koff (Fc tagged human CD137) | kon (Fc tagged human CD137) | IC50 (ng/ml), NF-AT potency assay, +HSA (human PDL1 on cells) | rel. IC50 (avelumab/test), +HSA (human PDL1 on cells) | IC50 (ng/ml) (EC50 in Table 16C), NFkB reporter, HCC827 + IFNg, 24 h, +HSA [1] | rel. IC50 (PRO1186/test), 24 h [1] | Area under the curve (calculated using PRO885 normalized data), first line (6 h by the order of the upper part) [2] | Area under the curve (calculated using PRO885 normalized data), second line (24 h by the order of the upper part) [2] | EC50 [ng/ml], NF-kB reporter, HCC827 + IFNg, +HSA, 6 h [2] | IC10/EC90 ratio, first line (6 h by the order of the upper part) [2] | IC10/EC90 ratio, second line (24 h by the order of the upper part) [2] | Maximum NF-kB activation (rel. to PRO1186) [%], first line (6 h by the order of the upper part) [2] | Maximum NF-kB activation (rel. to PRO1186) [%], second line (24 h by the order of the upper part) [2] | rel. Area under the curve (AUCsample/AUCPRO1186), first line (6 h by the order of the upper part) [2] | rel. Area under the curve (AUCsample/AUCPRO1186), second line (24 h by the order of the upper part) [2] | rel. EC50 (EC50, PRO1186/EC50, sample), NF-kB reporter, 6 h [2] | rel. EC50 (EC50, PRO1186/EC50, sample), NF-kB reporter, 24 h [2] | rel. IC10/EC90 (ratio of sample/ratio of PRO1186), first line (6 h by the order of the upper part) [2] | other results |
| --- | --- | --- | --- | --- | --- | --- | --- | --- | --- | --- | --- | --- | --- | --- | --- | --- | --- | --- | --- | --- | --- |
| PRO1476 (other, trispecific scDb-scFv; also called 33-03-G02 sc03 scDb-i/38-02-A04 sc13 scDb-o/19-01-H04 sc03 scFv) DIQMTQSPSSLSASVGDRVTITCQASQSINNVLAWYQQKPGKAPKLLIYRASTLASGVPSRFSGSGSGTDFTLTISSLQPEDFATYYCQSSYGNYGDFGCGTKVTVLGGGGGSQSQLQESGPGLVKPSETLSLTCKASGFSFSSGYDMCWVRQPPGKGLEWIACVVAGSVDITYYASWAKGRVTISKDSSKNQVSLKLSSVTAADTAVYFCARKDAYSDAFNLWGQGTLVTVSSGGGGSGGGGSGGGGSGGGGSFQLTQSPSSLSASVGDRVTITCQASQSINDYLAWYQQKPGKSPKLLIYKASTLASGVPSRFSGSGSGTDFTLTISSLQPEDFATYYCQQGYIITDIDNVFGTGTKVTVLGGGGGSEVQLVESGGGLVQPGGSLRLSCAASGFSFSNSYWICWVRQAPGKCLEWIGCTFVGSSDSTYYANWAKGRFTISRDNSKNTVYLQMNSLRAEDTAVYYCARHPSDAVYGYANNLWGQGTLVTVSSGGGGSGGGGSIQMTQSPSSLSASVGDRVTITCQSSESVYSNNQLSWYQQKPGQPPKLLIYDASDLASGVPSRFSGSGSGTDFTLTISSLQPEDFATYYCAGGFSSSSDTAFGGGTKLTVLGGGGGSGGGGSGGGGSGGGGSEVQLVESGGGLVQPGGSLRLSCAASGFSLSSNAMGWVRQAPGKGLEYIGIISVGGFTYYASWAKGRFTISRDNSKNTVYLQMNSLRAEDTATYFCARDRHGGDSSGAFYLWGQGTLVTVSS | 3.1e-05 s⁻¹ | 1.1 nM | 0.00037 s⁻¹ | 350000 M⁻¹ s⁻¹ | 53.5 ng/mL | 0.66 fold | 3.9 ng/mL | 1.83 fold | 93.5 | 135 | 5.97 ng/mL | 34.2 | 35.7 | 36.4% | 76.1% | 0.39 fold | 0.59 fold | 2.02 fold | 1.83 fold | 2.66 fold | Kd (Fc tagged human PDL1): 0.009 nM; rel. IC10/EC90 (ratio of sample/ratio of PRO1186), second line (24 h by the order of the upper part) [2]: 1.63 fold; IC50 (biotinylated human PDL1 [3]): 9.49 ng/mL; rel. IC50 (IC50 avelumab/IC50 test) (biotinylated human PDL1 [3]): 1.1 fold; IC50 (biotinylated human PDL1 [4]): 2.84 ng/mL; rel. IC50 (IC50 avelumab/IC50 test) (biotinylated human PDL1 [4]): 0.8 fold |
| PRO1431 (other, trispecific scDb-scFv; also called 38-02-A04 sc13 scDb-i/33-03-G02 sc18 scDb-o/19-01-H04 sc03 scFv) DIQMTQSPSSLSASVGDRVTITCQASQSINDYLAWYQQKPGKAPKLLIYKASTLASGVPSRFSGSGSGTDFTLTISSLQPEDFATYYCQQGYIITDIDNVFGTGTKVTVLGGGGGSEVQLVESGGGLVQPGGSLRLSCAASGFSFSNSYWICWVRQAPGKCLEWIGCTFVGSSDSTYYANWAKGRFTISRDNSKNTVYLQMNSLRAEDTAVYYCARHPSDAVYGYANNLWGQGTLVTVSSGGGGSGGGGSGGGGSGGGGSIQMTQSPSSLSASVGDRVTITCQASQSINNVLAWYQQKPGKAPKLLIYRASTLASGVPSRFSGSGSGTDFTLTISSLQPEDFATYYCQSSYGNYGDFGCGTKVTVLGGGGGSQVQLQESGPGLVKPSETLSLTCKASGFSFSSGYDMCWVRQPPGKGLEWIACVVAGSVDITYYASWAKGRVTISKDSSKNQVSLKLSSVTAADTAVYYCARKDAYSDAFNLWGQGTLVTVSSGGGGSGGGGSIQMTQSPSSLSASVGDRVTITCQSSESVYSNNQLSWYQQKPGQPPKLLIYDASDLASGVPSRFSGSGSGTDFTLTISSLQPEDFATYYCAGGFSSSSDTAFGGGTKLTVLGGGGGSGGGGSGGGGSGGGGSEVQLVESGGGLVQPGGSLRLSCAASGFSLSSNAMGWVRQAPGKGLEYIGIISVGGFTYYASWAKGRFTISRDNSKNTVYLQMNSLRAEDTATYFCARDRHGGDSSGAFYLWGQGTLVTVSS | 4.5e-05 s⁻¹ | 1.7 nM | 0.00075 s⁻¹ | 450000 M⁻¹ s⁻¹ | 9.83 ng/mL | 3.73 fold | 18.4 ng/mL | 1.02 fold | 83.2 | 119 | 21 ng/mL | 5.03 | 16.1 | 55.3% | 68.6% | 0.4 fold | 0.54 fold | 0.68 fold | 1.02 fold | 0.3 fold | rel. IC10/EC90 (ratio of sample/ratio of PRO1186), second line (24 h by the order of the upper part) [2]: 1.74 fold; IC50 (biotinylated human PDL1 [3]): 3.31 ng/mL; rel. IC50 (IC50 avelumab/IC50 test) (biotinylated human PDL1 [3]): 0.84 fold; IC50 (biotinylated human PDL1 [4]): 2.75 ng/mL; rel. IC50 (IC50 avelumab/IC50 test) (biotinylated human PDL1 [4]): 0.51 fold |
| PRO1473 (other, trispecific scDb-scFv; also called 38-02-A04 sc13 scDb-i/33-03-G02 sc03 scDb-o/19-01-H04 sc03 scFv) DFQLTQSPSSLSASVGDRVTITCQASQSINDYLAWYQQKPGKSPKLLIYKASTLASGVPSRFSGSGSGTDFTLTISSLQPEDFATYYCQQGYIITDIDNVFGTGTKVTVLGGGGGSEVQLVESGGGLVQPGGSLRLSCAASGFSFSNSYWICWVRQAPGKCLEWIGCTFVGSSDSTYYANWAKGRFTISRDNSKNTVYLQMNSLRAEDTAVYYCARHPSDAVYGYANNLWGQGTLVTVSSGGGGSGGGGSGGGGSGGGGSIQMTQSPSSLSASVGDRVTITCQASQSINNVLAWYQQKPGKAPKLLIYRASTLASGVPSRFSGSGSGTDFTLTISSLQPEDFATYYCQSSYGNYGDFGCGTKVTVLGGGGGSQSQLQESGPGLVKPSETLSLTCKASGFSFSSGYDMCWVRQPPGKGLEWIACVVAGSVDITYYASWAKGRVTISKDSSKNQVSLKLSSVTAADTAVYFCARKDAYSDAFNLWGQGTLVTVSSGGGGSGGGGSIQMTQSPSSLSASVGDRVTITCQSSESVYSNNQLSWYQQKPGQPPKLLIYDASDLASGVPSRFSGSGSGTDFTLTISSLQPEDFATYYCAGGFSSSSDTAFGGGTKLTVLGGGGGSGGGGSGGGGSGGGGSEVQLVESGGGLVQPGGSLRLSCAASGFSLSSNAMGWVRQAPGKGLEYIGIISVGGFTYYASWAKGRFTISRDNSKNTVYLQMNSLRAEDTATYFCARDRHGGDSSGAFYLWGQGTLVTVSS | 2.9e-05 s⁻¹ | 2 nM | 0.0006 s⁻¹ | 310000 M⁻¹ s⁻¹ | 35.2 ng/mL | 1.11 fold | 0.91 ng/mL | 3.55 fold | 52.3 | 188 | 2.4 ng/mL | 53.9 | 15.7 | 36.2% | 67.4% | 0.31 fold | 0.73 fold | 2.3 fold | 3.55 fold | 1.01 fold | Kd (Fc tagged human PDL1): 0.0082 nM; kon (Fc tagged human PDL1): 3.6e+06 M⁻¹ s⁻¹; rel. IC10/EC90 (ratio of sample/ratio of PRO1186), second line (24 h by the order of the upper part) [2]: 0.12 fold; IC50 (biotinylated human PDL1 [3]): 8.89 ng/mL; rel. IC50 (IC50 avelumab/IC50 test) (biotinylated human PDL1 [3]): 1.49 fold; IC50 (biotinylated human PDL1 [4]): 4.14 ng/mL; rel. IC50 (IC50 avelumab/IC50 test) (biotinylated human PDL1 [4]): 0.56 fold |
